In experiment [1] the target is MafR_(V583), untagged MafR protein from Enterococcus faecalis V583 (Enterococcus faecalis V583). The experiment is described as follows: SEC. A general note: SEC sorts molecules by how far they enter the pores of the column.
Experiment [2] shares this target. Nature of the experiment: AUC.

A word on the stoichiometry N: it is the number of molecules, sites or subunits per partner or assembly.

With “MafR_(V583), untagged MafR protein from Enterococcus faecalis V583 (natural protein)”, the stoichiometry N in experiment [1] and in experiment [2] was 2 throughout.

Source of the values: article PMC5947639.
